Test results: the RNAGym collection of RNA variant scans (doi:10.7554/elife.90254)

B1: LINE1-full (parent)
chain: UACGUAGGUGGUUUUCCCCUGAUAGUGCUAAGGGGGCCUGGAAGUUUGGACUGGGCAGAGCUCAACACAGCGUGGCAAAGUGGCUGUGGCUAGACUGCCUCUCUGGAUUCCUCGUCACUCAGCAGGGCAUCUCUGAGAGAAAUGCC

Variants of: B1
Test: self-cleavage, relative activity (ratio to wild type); higher = more cleavage; in vitro, sequencing; the parent is a self-cleaving ribozyme
In the case of U9A U13C, the self-cleavage is reported as 0.81. Variant A107G G114A has a self-cleavage of 1.18. A69G U81G gave a self-cleavage of 0. A92G U134A showed a self-cleavage of 0. Work on A79G C128U yielded a self-cleavage of 0.92. U20C U81A showed a self-cleavage of 1.44. Work on C116U A141G yielded a self-cleavage of 1.42. U13C gave a self-cleavage of 1.15. A42U U104C showed a self-cleavage of 1.76. U13A A42G showed a self-cleavage of 1.26. U14C A121G gave a self-cleavage of 1.3. In the case of G41A A79G, the self-cleavage is reported as 1. For C16U U143A, the self-cleavage was 0.86. Variant G11C A57G has a self-cleavage of 0.71. U15C U81G showed a self-cleavage of 1.89. With A42G U130A the self-cleavage was 1.47. For G34A U143G, the self-cleavage was 1.64. Variant U9G U130C has a self-cleavage of 1.79. A136U A140G showed a self-cleavage of 1.7. In the case of U5C U130A, the self-cleavage is reported as 0.77. For A69U U134C, the self-cleavage was 0.09. With U52C U104C the self-cleavage was 1.1. U23C A124C showed a self-cleavage of 1.34. Work on A92U G127A yielded a self-cleavage of 0.39. Variant U12C U109C has a self-cleavage of 1.48. Variant A31U U96C has a self-cleavage of 0.23. U45A A124U gave a self-cleavage of 1.39. With A94G U100A the self-cleavage was 0.21. Variant A79G U85A has a self-cleavage of 0.08. With U102C U108C the self-cleavage was 1.15. Variant G54U A136G has a self-cleavage of 1. For U20C A121U, the self-cleavage was 1.44. Variant A65G G127U has a self-cleavage of 0.04. G114U gave a self-cleavage of 1.4. Variant C17A G70U has a self-cleavage of 0.13. For G4A C19U, the self-cleavage was 0.59. Work on U108C C120A yielded a self-cleavage of 1.45. With G11A A64U the self-cleavage was 0.3. Variant U5C U26C has a self-cleavage of 1.23. Variant G41U A129G has a self-cleavage of 1.03. G21U C56G showed a self-cleavage of 0.02. Work on U109G G127A yielded a self-cleavage of 1.53. Variant U132C A142U has a self-cleavage of 1.2. For A2G U119A, the self-cleavage was 0.96. A64G A141G gave a self-cleavage of 0.21. U112C U132G gave a self-cleavage of 1.53. U52A U100C gave a self-cleavage of 1.96. U23A A79G gave a self-cleavage of 1.31. U26A C128U showed a self-cleavage of 0.72. Variant G41U U132A has a self-cleavage of 1.35. For A121U G126A, the self-cleavage was 0.83. For A42G C56U, the self-cleavage was 0.26. G70A U115G showed a self-cleavage of 0.11. Variant G54A U100A has a self-cleavage of 0.16. U81G A92G gave a self-cleavage of 0.24. U13C U143A gave a self-cleavage of 1.17. U47C C63U gave a self-cleavage of 0.37. Work on U5C A43G yielded a self-cleavage of 1.03. Work on A6C C113U yielded a self-cleavage of 1.35. With A6G G139U the self-cleavage was 0.96. With U29C G53A the self-cleavage was 0.94. With G58A A140G the self-cleavage was 0.04. With A31U C146U the self-cleavage was 0.94. Work on G80C U132C yielded a self-cleavage of 1.84. In the case of A22G A117U, the self-cleavage is reported as 1.29. For A64U G82A, the self-cleavage was 0.65. In the case of G32A U112C, the self-cleavage is reported as 1.36. In the case of U100C C128U, the self-cleavage is reported as 1.58. Variant U23A U52C has a self-cleavage of 0.75. Work on U47G A140U yielded a self-cleavage of 0.9. U13C U20G showed a self-cleavage of 0.69. In the case of U87A U108A, the self-cleavage is reported as 0.06. G36A U143C gave a self-cleavage of 1.57. With G86U G105A the self-cleavage was 0.06. For U12G G35A, the self-cleavage was 0.89. With U29G G35C the self-cleavage was 1.03. Variant A30G A77U has a self-cleavage of 0.71. In the case of U73G, the self-cleavage is reported as 1.29. Variant A67G A141G has a self-cleavage of 0.38. Variant U96A U115A has a self-cleavage of 0.08. Variant U26C C61U has a self-cleavage of 0.04. Variant U15A A107G has a self-cleavage of 0.81. With A64U U115A the self-cleavage was 0.57. For G11U U134G, the self-cleavage was 1.07. U96A C116A gave a self-cleavage of 0.21. In the case of C68U A141G, the self-cleavage is reported as 0.3. With G75U U109C the self-cleavage was 0.7. With U13A U20A the self-cleavage was 1.15. For A57G G139U, the self-cleavage was 0.48. With A57G U104C the self-cleavage was 1.11. Work on A67U A136U yielded a self-cleavage of 0.12. With G49A U91G the self-cleavage was 0.04. Work on A79U U119C yielded a self-cleavage of 2.41. For U13C C99U, the self-cleavage was 0.48. Variant U46A C146U has a self-cleavage of 1.63. For U12G A50U, the self-cleavage was 1.16. Work on G126A U143C yielded a self-cleavage of 0.77. Work on U14C G54A yielded a self-cleavage of 0.71. Variant A129U G144A has a self-cleavage of 1.51. Work on U23C A129G yielded a self-cleavage of 0. Work on A57C U132A yielded a self-cleavage of 0. For G41A U143G, the self-cleavage was 1.11. U29G A141U gave a self-cleavage of 0.35. For U81A A124G, the self-cleavage was 1.55. Variant U1C U81A has a self-cleavage of 1.64. Work on A6C U134C yielded a self-cleavage of 0.61. In the case of U46A U119C, the self-cleavage is reported as 0.92. U100A gave a self-cleavage of 0.9. For G44A A140G, the self-cleavage was 1.34. In the case of C99U C145U, the self-cleavage is reported as 0.82. With U45C A69U the self-cleavage was 0.03. Variant U26A U100G has a self-cleavage of 1.31. Variant U52A A59G has a self-cleavage of 0.03. A65U A78C gave a self-cleavage of 0.27. In the case of G126A A141U, the self-cleavage is reported as 0.67. U87C C131U showed a self-cleavage of 0.15. Work on G11A A59G yielded a self-cleavage of 0.08. In the case of G86A U115A, the self-cleavage is reported as 0.01. For U91C U130C, the self-cleavage was 0.77. Variant G58A U62C has a self-cleavage of 0.08. Work on U47A A107G yielded a self-cleavage of 0.95. U46A C71A gave a self-cleavage of 0.25. Variant C17U U96C has a self-cleavage of 0.1. For C38U A129U, the self-cleavage was 0.31. G34A U130C gave a self-cleavage of 1.32. With A77G U119A the self-cleavage was 2.04. In the case of A67U U85C, the self-cleavage is reported as 0.01. Work on C68U U81A yielded a self-cleavage of 0.18. Work on G11U U20C yielded a self-cleavage of 0.34. With U23C U26G the self-cleavage was 1.45. U20C G44U gave a self-cleavage of 1.06. G34A G72A gave a self-cleavage of 1.24. For C3U U104C, the self-cleavage was 1.53. In the case of U12A A65G, the self-cleavage is reported as 0.21. U12A U108C showed a self-cleavage of 1.28. U39A G49A showed a self-cleavage of 1.06. Work on A24C C99A yielded a self-cleavage of 0.47. G80C U96G gave a self-cleavage of 0.09. C68A U73C showed a self-cleavage of 0.05. G40A U52A gave a self-cleavage of 1.25. With A64U U81G the self-cleavage was 0.4. In the case of A117U U119C, the self-cleavage is reported as 1.73. With U29C C111A the self-cleavage was 1.24. G21A U52A showed a self-cleavage of 1.76. Variant A22U G93A has a self-cleavage of 0.07. A69C U104C showed a self-cleavage of 0.22. A69U G127C showed a self-cleavage of 0.12. Work on U52G C118U yielded a self-cleavage of 2.3. G58U A124G gave a self-cleavage of 0.01. For U26C U47A, the self-cleavage was 1.16. In the case of A57U U115C, the self-cleavage is reported as 0.18. With A59U U104C the self-cleavage was 1.02. A50U A67G showed a self-cleavage of 0.33. For G32U U132A, the self-cleavage was 1.2. Work on U9A A141G yielded a self-cleavage of 1.36. Work on U52G A94U yielded a self-cleavage of 0.42. U96C C111U showed a self-cleavage of 0.12. Work on U47A A117G yielded a self-cleavage of 1.38. With U39C U104A the self-cleavage was 0.89. Work on U13C C98G yielded a self-cleavage of 0.15. With A30G C146U the self-cleavage was 0.92. Work on A59G A92C yielded a self-cleavage of 0.14. U62C C63A showed a self-cleavage of 0.01. In the case of C3U A31U, the self-cleavage is reported as 0.37. U46G A140G showed a self-cleavage of 1.78. With U12C A42U the self-cleavage was 1. C56U C71U gave a self-cleavage of 0.07.
